In article PMC5783996:

Target: Botryococcus braunii light-harvesting complexes (BB LHCII), apoproteins of the trimeric fraction B3 (Botryococcus braunii (endogenous in strain CCALA778 thylakoids))
Assay: sucrose density gradient ultracentrifugation; thylakoids solubilised with 1% α-DM (also OG) at room temperature, complexes separated on a sucrose density gradient; bands assigned by position (MW)

Question: For “Botryococcus braunii light-harvesting complexes (BB LHCII), apoproteins of the trimeric fraction B3”, which stoichiometry N is on record?
Answer: 3
